Molecular target: T1, MUC16 on OVCAR-3 cells (human, UniProt Q8WXI7 1-14507)
T1 construct: whole, on cells
Assay: FACS binding to OVCAR-3 cells

B1: BSMUC16/CD3-001 (bispecific antibody, V domains shown)
VH 1: QVQLVESGGGLVKPGGSLRLSCAASGFTFSNYYMSWVRQAPGKGLEWISYISGRGSTIFYADSVKGRITISRDNAKNSLFLQMNSLRAEDTAVYFCVKDRGGYSPYWGQGTLVTVSS
VH 2: EVQLVESGGGLVQPGRSLRLSCAASGFTFDDYSMHWVRQAPGKGLEWVSGISWNSGSKGYADSVKGRFTISRDNAKNSLYLQMNSLRAEDTALYYCAKYGSGYGKFYHYGLDVWGQGTTVTVSS
VL: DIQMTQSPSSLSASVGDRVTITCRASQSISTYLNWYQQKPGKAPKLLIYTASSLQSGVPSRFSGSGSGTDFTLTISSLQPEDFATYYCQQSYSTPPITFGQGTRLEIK
notes: It was biotinylated in the ELISA and 89Zr-DFO labelled in the PET study; also called REGN4018; ubamatamab
binding result: binds

Reference: patent US20230312718A1 (Regeneron, published 2023)
